Assay [1] deals with T1, human CD88 (complement component 5a receptor 1) (human, UniProt P21730 1-350).
T1 construct: Native antigen on granulocytes of lysed human whole blood / PBMC preparations, read by flow cytometry; also called C5AR1; native CD88 antigen expressed on granulocytes
T1 chain: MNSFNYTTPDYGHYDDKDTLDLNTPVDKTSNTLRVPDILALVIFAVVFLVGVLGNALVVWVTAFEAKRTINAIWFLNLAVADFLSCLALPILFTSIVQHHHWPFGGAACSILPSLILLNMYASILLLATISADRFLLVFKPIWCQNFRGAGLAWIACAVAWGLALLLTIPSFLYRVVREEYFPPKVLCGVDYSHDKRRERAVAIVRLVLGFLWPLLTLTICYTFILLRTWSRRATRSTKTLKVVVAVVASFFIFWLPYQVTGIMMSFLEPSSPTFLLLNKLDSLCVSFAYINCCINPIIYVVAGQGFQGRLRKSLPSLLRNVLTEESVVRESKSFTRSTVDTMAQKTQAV
Kind of assay: flow cytometry on granulocytes, PE goat anti-rabbit secondary. As to the method:
(§1) For cell surface staining with the parental rabbit anti-human CD88 mAb, PBMCs in PBS containing 2% BSA were mixed with parental rabbit anti-human CD88 mAbs at concentrations of 1 μg, 0.5 μg, 0.25 μg, 0.125 μg and 0.0625 μg as shown in FIG. 3 (A-E) and incubated for 1 hr at 4° C. The cells were washed with PBS containing 2% BSA and incubated at 4° C. for 30 minutes with BD Pharmingen PE Goat Anti-rabbit IgG (Cat No 558146). The cells were washed with PBS containing 2% BSA, and analyzed with a BD FACS Canto II Flow cytometer. Non-specific binding of the secondary anti-rabbit PE-conjugated antibody on the cells alone (primary antibody absent; FIG. 3F) and background autofluorescence by unstained cells (secondary antibody absent; FIG. 3G) served as negative controls for the assay. The % positive signal was detected.

In assay [2] the target is T1, human CD88 (complement component 5a …). Kind of assay: flow cytometry on granulocytes, PE goat anti-rabbit IgG secondary. As to the method: as §1
The binding of the variant rabbit anti-human CD88 mAbs was assayed as for the parental mAb, and the results for four variants are shown in FIGS. 4-7. […] Panels F and G show fluorescence of the negative controls as described for the parental mAb. […] Panels F and G show fluorescence of the negative controls as described for the parental mAb. […] Panels F and G show fluorescence of the negative controls as described for the parental mAb. FIG. 7 (A-E) show the binding at concentrations of 1 ug, 0.5 ug, 0.25 ug, 0.125 ug and 0.0625 ug of a fourth variant mAb having a substitution R116A in the heavy chain and a substitution Y51F in the light chain CDRs. Panels F and G show fluorescence of the negative controls as described for the parental mAb.
(Flow cytometry measures light scatter and fluorescence of single cells or particles in a stream.)

Substitutions are numbered along the chain they refer to. Names may count otherwise.

B1: parental rabbit anti-human CD88 mAb (hybridoma cell line CD88 clone C85-4124) (antibody, V domains shown)
VH: QSVKESEGGLFKPADTLTLTCTVSGFSVNNKGVMWVRQAPGNGLEWIGSIGISGRVTYATWAKSRSTITRDTNLNTVTLKVTSLTVADTATYFCRIGSNIWGPGTLVTVSS
VL: ELVLTQTPSSVSAAVGGTVTINCQSSQSVYNNNLLAWYQQKPGQPPKLLIYQASTLDSGVPSRFKGSGTGTHFTLTISDLECDDAATYYCQGGYNGNGIAAFGGGTEVVVDG
notes: Rabbit monoclonal antibody
As to B1, the binding result in assay [1] was “binds”.

B2: Variant 2 rabbit anti-human CD88 mAb, Y51A in light chain CDR-L1 (antibody, V domains shown)
VH: B1 VH
VL: B1 VL with Y30A
notes: Recombinant, made in 293F cells; also called second variant
B2: in assay [2], the binding result is recorded as “no binding”.

B3: Variant 1 rabbit anti-human CD88 mAb, R116A in heavy chain CDR-H3 (antibody, V domains shown)
VH: B1 VH with R95A
VL: B1 VL
notes: No signal peptide limits are stated; also called first variant
On to B3, for which the binding result in assay [2] is reported as “no binding”.

B4: Variant 4 rabbit anti-human CD88 mAb, R116A in heavy chain and Y51F in light chain (antibody, V domains shown)
VH: B1 VH with R95A
VL: B1 VL with Y30F
notes: Recombinant double mutant, made in 293F cells; also called fourth variant
Regarding B4, the binding result in assay [2] is “no binding”.

B5: Variant 3 rabbit anti-human CD88 mAb, R116A in heavy chain and Y51A in light chain (antibody, V domains shown)
VH: B1 VH with R95A
VL: B1 VL with Y30A
notes: Recombinant double mutant, made in 293F cells; also called third variant
Regarding B5, the binding result in assay [2] was “no binding”.

The record behind these values is patent US20150093764A1 (BECTON DICKINSON, published 2015).
